1 substance from publication PMC3459974 can be followed below.

For orientation: stoichiometry N means a count of units in the complex or per binding partner.

In the assay the target is thioredoxin fused-human artemin protein (Trx-ARTN) (human) (UniProt Q5T4W7). As to the kind of experiment: SEC; Superdex-200 10/300 column; dimeric Trx-ARTN fractions eluted from the CM-sepharose column, from both refolding methods; calibration with protein standards.

Turning to “thioredoxin fused-human artemin protein (Trx-ARTN) (from UniProt Q5T4W7 40-220) (natural protein)”, the stoichiometry N came out at 2.
